Test results as given in the supplement of paper PMC6755084.

System: F1*sub RNA substrate (template-directed ligation)
Assay: fraction ligated after 30 min (ligated reads / total reads); higher = more ligase activity; sequences stand for … in GAGACCGCAACTGAAAAGTTGT…AGTTCTGCACGTAGAAGCAAAAGGC
Settings: 42 °C
Experimental: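 Chip-synthesised pool of F1* ligase ribozyme variants (all single and double substitutions, single, double and triple deletions in the catalytic core and GAA bulge, plus designed variants) was transcribed with T7 and reacted as a pool with excess substrate F1*sub for 30 min at 42 C in 50 mM EPPS pH 8.5, 25 mM MgCl2. Ligated and unligated bands were separated by PAGE, barcoded by RT and deep sequenced; fraction ligated = ligated reads / total reads per variant, relative activity = FL / FL of wild type (0.826). Sequences are the DNA template of the ribozyme.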

Sequence | fraction ligated
TATCATTGTCGTAAGAACTTTGGTGGGTTGA [3d1250] | 0.0672
TATCACTGTCGTAAGACACTTTGTGGGTTGA [3d1448] | 0.0145
TACCTTGCGTAAGACACTTTGGATGGGTTGA [3d530] | 0.392
TATCACTTGTCGTAAGCACTTTGATGGGTTGA [2d248] | 0.751
TTCCTTTCGTAAGACACTTTGGATGGGTTGA [3d299] | 0.753
TATCACTTGTCGTAAGCACTTGGATGGGTTG [3d2134] | 0.76
ATCACTTGTCGTAAGACACTTGGAGGGTTGA [3d256] | 0.0205
TATCACTTTCGTAGACACTTTGGATGGGTTG [3d1518] | 0.786
TATCCTTGTCGAAGACACTTGGATGGGTTGA [3d1035] | 0.775
TATCATTGTCGAAGACATTTGGATGGGTTGA [3d1206] | 0.794
TATCACTTTCTAAGACACTTTGGATGGGTTG [3d1492] | 0.785
TATCACTTGTCTAAGACACTTGATGGGTTGA [3d1879] | 0.708
TATCACTTGTGAAGACACTTTGGATGGGTTGA [2d180] | 0.853
TACCTTGTCGTAAGACACTTTGGATGGTTGA [3d544] | 0.233
TATCATTGCGTAAGACACTTGGATGGGTTGA [3d1165] | 0.773
TTCACTTGTGTAAGACACTTTGGAGGGTTGA [3d398] | 0.105
TACACTGTCGTAAGACCTTTGGATGGGTTGA [3d576] | 0.752
TATCACTTGTCGTAGACCTTTGGAGGGTTGA [3d2024] | 0.211
TATCACTTTCGTAAACACTTTGGAGGGTTGA [3d1525] | 0.0183
TTCACTTTCGTAAGACACTTTGGATGGGTTA [3d369] | 0.0133
TATCACTTGTCGTAAGACACTTTGATGGTTA [3d2267] | 0.00859
TACACTTGTCGTAAGAACTTTGATGGGTTGA [3d694] | 0.00588

Sequence | fraction ligated
TATCATTGTCGTAGACCTTTGGATGGGTTGA [3d1218] | 0.788
TATCACTTGGTAGACACTTTGGATGGGTTGA [3d1586] | 0.829
TATCATTGTCGTAGACACTTTGGATGGGTTG [3d1226] | 0.799
TATCACTGTCGTAAGACACTTTATGGGTTGA [3d1447] | 0.0197
TATCCTTGTCGTAGACACTTTGGAGGGTTGA [3d1051] | 0.00532
TATCCTTGTCGTAAGACACTTTGATGGTTGA [3d1107] | 0.054
TATCCTTGTGTAAGACACTTTGGATGGTTGA [3d1012] | 0.0285
ATCACTTGTCGTAGACACTTTGGATGGGTTA [3d209] | 0.728
ATCACTTGTCTAAGACACTTGGATGGGTTGA [3d178] | 0.73
TATCACTTGTCGTAAGACACTGGAGGGTTGA [3d2234] | 0.00473
TATCACTTGTCGTAAGCATTTGGAGGGTTGA [3d2124] | 0.0316
TATCACTGTCGAAGACATTTGGATGGGTTGA [3d1377] | 0.841
TATCACTTGCGTAAGACACTTTGAGGGTTGA [3d1690] | 0.0844
TATACTTGCGTAAGAACTTTGGATGGGTTGA [3d818] | 0.768
TATCACTTGTCGTAAGACACTTTGGATGGGTT [2d298] | 0.772
TATCACTTGTCGTAAGAACTTTGTGGGTTGA [3d2167] | 0.0101
TATCCTTGTGTAAGACACTTTGGAGGGTTGA [3d1011] | 0.0114
TATCACTGCGTAAGACACTTTGGATGGTTGA [3d1340] | 0.15
TATCATTGTCGTAAGACACTTTGTGGGTTGA [3d1277] | 0.0371
TACACTTTCGTAAGACACTTTGGAGGGTTGA [3d597] | 0.0439
TATCACTTGTCGTAAGACATTTGGATGGTTG [3d2228] | 0.0492
TATCACGTCGTAAGAACTTTGGATGGGTTGA [3d1301] | 0.825

Sequence | fraction ligated
TATCACGTCGTAAGACACTTTGGTGGGTTGA [3d1306] | 0.721
TATCATTGTCGTAAGACATTGGATGGGTTGA [3d1262] | 0.801
TATCACTTGCGTAAGCACTTTGGAGGGTTGA [3d1655] | 0.178
TATCACTTGTCTAGACATTTGGATGGGTTGA [3d1828] | 0.814
ATCACTGTCGTAAGACACTTTGGATGGGTTA [3d122] | 0.298
ACACTGTCGTAAGACACTTTGGATGGGTTGA [3d27] | 0.238
TATCACTTGTGTAAGACCTTGGATGGGTTGA [3d1772] | 0.856
TATCACTTGGTAAACACTTTGGATGGGTTGA [3d1587] | 0.826
ATCATTGTCGTAAGACACTTTGGATGGGTTGA [2d5] | 0.759
TATCACTTGTCGTAAGACCTTTGGAGGGTTA [3d2201] | 0.0991
TATCACTTGTCGAAGAACTTTGGATGGGTTG [3d1942] | 0.798
TATCACTTGTGTAAGACACTTTGGGGGTTGA [3d1799] | 0.0501
TATCACTGTCGTAAGACACTTGGATGGGTTA [3d1445] | 0.775
TACACTTGTCGTAGACACTTTGGAGGGTTGA [3d668] | 0.146
ATCACTTGTCGTAAGACACTTGGATGGGTTG [3d259] | 0.687
ATCACTTGTCGTAAACACTTTGGATGGGTTG [3d220] | 0.75
TATCACGCGTAAGACACTTTGGATGGGTTGA [3d1294] | 0.814
TATCACTGTCGTAAGACACTTTGGATGGTTG [3d1461] | 0.33
TACCTTGTCGTAAGACACTTGGATGGGTTGA [3d540] | 0.746
TATCACTGTCGTAAGACCTTTGGATGGGTTA [3d1431] | 0.808
TATCACTTGTGTAAGAACTTTGGATGGGTTG [3d1771] | 0.85
ATCACTTTCGTAGACACTTTGGATGGGTTGA [3d127] | 0.781

Sequence | fraction ligated
TATCCTTGTCGTAAGAACTTTGGATGGGTTG [3d1082] | 0.779
TATCACTGTCGTAAGACACTTTGATGGTTGA [3d1450] | 0.0354
TATCACTTGTCGTAAGCATTTGGTGGGTTGA [3d2123] | 0.0465
TATCACTTGTCGAAGACCTTTGATGGGTTGA [3d1944] | 0.76
TATCACTTGTCGAAGCACTTTGGTGGGTTGA [3d1930] | 0.0884
TATCCTTGTCGAAACACTTTGGATGGGTTGA [3d1030] | 0.81
TTCATTGTCGTAAGACACTTTGGATGGGTTG [3d335] | 0.285
ATCACTTGTCTAAGACACTTTGGATGGGTTA [3d183] | 0.656
TATCCTGTGTAAGACACTTTGGATGGGTTGA [3d952] | 0.791
TATCATTGTGTAAGACACTTGGATGGGTTGA [3d1180] | 0.799
ATCACTTGTCGTAAGACCTTTGGATGGGTTGA [2d16] | 0.741
TATCACTGTCGTAACACTTTGGATGGGTTGA [3d1386] | 0.826
ATCACTGTCGTAAGACACTTTGGATGGTTGA [3d121] | 0.46
TATCACTTGTCGTAAGACATTTGGATGGGTTA [2d274] | 0.806
TATCCTTGTCGTAAGACACTTGGATGGTTGA [3d1101] | 0.0445
TATACTTGTCGTAAGCACTTGGATGGGTTGA [3d896] | 0.645
TTCACTTGTGTAGACACTTTGGATGGGTTGA [3d389] | 0.762
TATCATTGTCGTAAGCACTTTGGTGGGTTGA [3d1242] | 0.0707
TTCCTTGTCGTAGACACTTTGGATGGGTTGA [3d304] | 0.77
ATCACTTGCGTAAGACACTTTGGATGGTTGA [3d153] | 0.569
TATACTTGTCGTAAGCACTTTGGATGGGTTA [3d901] | 0.0196
TATCCTTGCGTAAGCACTTTGGATGGGTTGA [3d989] | 0.775

Sequence | fraction ligated
TATCACGTCGTAAGACCTTTGGATGGGTTGA [3d1302] | 0.786
TATCACTTGTGTAGCACTTTGGATGGGTTGA [3d1733] | 0.841
TATCCTGTCGTAAGACACTTTGGATGGGTTGA [2d90] | 0.788
TTCATTGTGTAAGACACTTTGGATGGGTTGA [3d320] | 0.137
TATCACTGTGTAGACACTTTGGATGGGTTGA [3d1345] | 0.886
TATCACTTGCGTAAGACCTTTGGATGGGTTA [3d1672] | 0.785
TATCCTTGTCGTAAGACCTTTGGAGGGTTGA [3d1086] | 0.0073
TATACTTGTCGAAGCACTTTGGATGGGTTGA [3d859] | 0.703
TATCACTTGTCGTAAGACATTTGGTGGGTTGA [2d271] | 0.0311
TAACTTGTCGTAAGACACTTTGGATGGTTGA [3d525] | 0.309
TATCACTTGTCGTAACACTTGGATGGGTTGA [3d1996] | 0.773
TACACTTGTCGAAGACACTTTGATGGGTTGA [3d653] | 0.0665
TATCCTTGTCGTAGACACTTTGGTGGGTTGA [3d1050] | 0.26
CACTTGTCGTAAGACACTTTGGATGGGTTGA [3d1] | 0.637
TATCACTTTGTAAGACACTTGGATGGGTTGA [3d1472] | 0.802
TATACTTTCTAAGACACTTTGGATGGGTTGA [3d797] | 0.562
TACACTTGTCGTAAGACACTTTGGATGGTTGA [2d66] | 0.644
TATCACTTGTCGTAAGACCTTTGGTGGGTTG [3d2199] | 0.0351
TACCTTGTCGTAAGACATTTGGATGGGTTGA [3d539] | 0.749
TATCATGTGTAAGACACTTTGGATGGGTTGA [3d1124] | 0.84
